What all share (format): cell-based, Yarrowia
Test [1] relates to olivetolic acid. The test is described as follows: MPT4.1 with and without GPS1.1 fusion vs MPT4 fusion, in vivo assay (Example 5). To be noted: 3 mM olivetolic acid, 48 h quench. How it is done:
As described below, plasmids pCL-SE-0337.MPT4.1 and pCL-SE-0753 were transformed into strain sCL-SE-0128. Multiple colonies per transformation were precultured for 24 h in YNB containing glucose (2%), casamino acids (0.5%), and MES (100 mM pH 6.5). Pre-culture was used to inoculate assay medium comprised of YNB containing glucose (6%), casamino acids (0.5%), MES (100 mM pH 6.5), and olivetolic acid (3 mM). Cultures were quenched with equal volume of ethanol after 48 h total growth and assayed for CBGA and FCBGA. Averages and standard deviations were calculated from replicates.
(§1) Overnight YPD (10 g/L yeast extract, 20 g/L peptone, 2% dextrose) cultures were inoculated from glycerol stocks of the appropriate strain and grown at 30° C. with 250 rpm shaking. Once cultures had reached an OD600 of 4-6, cultures were centrifuged at 500×g for 5 min, supernatants were discarded, and cell pellets were resuspended in equal volume of water. Resuspended cells were centrifuged at 500×g for 5 min, supernatants were discarded, and cells were resuspended in a volume (75 μL×OD×Vculture) of transformation cocktail (45% PEG-400, 0.1 M LiAc, 0.1 M DTT, and 25 ug/100 μL SS Salmon Sperm DNA). For each transformation, >1 μg of plasmid DNA was added to 55 μL cells/transformation cocktail and vortexed for 2 s. Transformations were incubated at 39° C. for 1 h with 250 rpm shaking. Transformations were resuspended in 750 μL YPD with 1 M sorbitol and recovered at 30° C. overnight with 250 rpm shaking. The next day, transformations were centrifuged at 500×g for 5 min, supernatants were discarded, and cell pellets were resuspended in 750 YPD. Resuspended transformations were plated on YPD with appropriate selection or YNBD (6.71 g/L yeast nitrogen base+nitrogen, 0.5% casamino acids, 2% dextrose) agar plates and grown at 30° C. for 2 days. Individual colonies were patched onto YPD plates with appropriate selection or YNBD plates and grown at 30° C. overnight. Patches were used to inoculate 0.5 mL YPD with appropriate selection or YNBD precultures in 96 w blocks and grown at 30° C. for 24-48 h with 1000 rpm shaking. For assays, 0.5 mL YPD with appropriate selection or YNBD cultures containing substrate were inoculated with 2 μL from precultures and grown at 30° C. for 2-4 days with 1000 rpm shaking with 2% glucose added every 24 h. Assay cultures were quenched by addition of 0.5 mL ethanol with 0.2% formic acid and 0.5 mg/mL pentyl-benzoic acid. Precipitates were pelleted by centrifuging at 4600×g for 10 min and then 200 μL was transferred to fresh plates, sealed, and analyzed via HPLC.
(§2) All samples were quenched with equal volume of EtOH containing 0.2 mg/mL internal standard (3,5-Diisopropyl-2-hydroxybenzoic acid CAS #2215-21-6) centrifuged, and clarified solutions were analyzed by HPLC-MS
(§3) • Column: 2.1×50 mm COSMOCORE PBr (Nacalai USA, Inc.) • Mobile Phase: A; 0.1% formic acid in water, B; 0.1% formic acid in acetonitrile • Flow: 0.45 mL/min • Temp: % 50 Celsius • Gradient: 20%B at 0 min, 70%B at 2.3 min, 89% B at 4.2 min, 20% B at 4.3 min, 20%B at 6 min

Test [2] deals with olivetolic acid. The test is described as follows: Linkers for GPS1.1-MPT4 fusions, in vivo assay (Example 6). To be noted: 1 mM olivetolic acid, 72 h quench. As to the method:
As described in detail below, plasmids pCL-SE-0380 (MPT4), pCL-SE-0406, pCL-SE-0435, and pCL-SE-0437 were transformed into strain sCL-SE-0128. Four separate colonies per transformation were precultured for 24 h in YNB containing glycerol (2%), casamino acids (0.5%), and MES (100 mM pH 6.5). Pre-culture was used to inoculate assay medium comprised of YNB containing glycerol (2%), casamino acids (0.5%), MES (100 mM pH 6.5), and olivetolic acid (1 mM). Cultures were quenched after 72 h total growth by mixing with equal volume of EtOH. Enzymes produced CBGA and FCBGA. Averages and standard deviations were calculated from replicates.
However, sCL-SE-0128 expresses HMGR and GPS1.1 to increase intracellular GPP levels for prenylation of OA to CBGA. The plasmids that were transformed contain either a gene expressing a prenyl-transferase (pCL-SE-0380 (MPT4)) or a gene expressing a fusion between GPS1.1 and a prenyl-transferase with different linker sequences.
as §1, §2, §3

For test [3], the system named is olivetolic acid. The test is described as follows: Fusions of different GPSs with MPT4, in vivo assay (Example 7). The following applies: 1 mM olivetolic acid, 72 h quench. As to the method: As described below, plasmids pCL-SE-0337, 0406, 0452 and 0453 were transformed into strain sCL-SE-0128. Multiple colonies per transformation were precultured for 24 h in YNB containing glycerol (2%), casamino acids (0.5%), and MES (100 mM pH 6.5). Pre-culture was used to inoculate assay medium comprised of YNB containing glycerol (2%), casamino acids (0.5%), MES (100 mM pH 6.5), and olivetolic acid (1 mM). Cultures were quenched after 72 h total growth and assayed for CBGA and F-CBGA. Averages and standard deviations were calculated from replicates.
However, sCL-SE-0128 expresses HMGR and GPS1.1 to increase intracellular GPP levels for prenylation of OA to CBGA. The plasmids that were transformed contain a gene expressing a fusion between two different GPSs and a prenyl-transferase. The same linker is used for all constructs. […] Additionally, as illustrated by GPS2 (pCL-SE-0453), certain GPS-MPT combinations result in very high CBGA/ FCBGA ratios.
as §1, §2, §3

For the next test, the system named is hexanoic acid. The test is described as follows: GPS-PKC-MPT fusions, hexanoic acid feed in vivo assay (Example 13). The following applies: hexanoic acid 2.5 mM plus 5 mM after 24 h, 48 h quench; strain SB-00311 + pCL-SE-0274; average of 44 or 34 transformants. How it is done: Strain SB-00311 (HCS2, PKS1.1 and PKC1.1) was co-transformed with 1) a construct (pCL-SE-0274) for expression of HMGR and GPS1.1 and 2) a construct (pCL-SE-0406) for expression of a fusion protein that contains, from N- to C-terminus, GPS1.1 and MPT4 linked using the F11 linker sequence or a construct (pCL-SE-0474) for expression of a fusion protein that contains, from N- to C-terminus, GPS1.1, PKC1.1 and MPT4, each linked using the F11 linker sequence.
Transformants were assessed for CBGA production from hexanoic acid. Assay cultures consisted of YNBD+CAA media with 2.5 mM hexanoic acid. After 24 h, an additional 5 mM hexanoic acid was added to each assay culture. Cultures were quenched after 48 h total growth.
Overnight YPD (10 g/L yeast extract, 20 g/L peptone, 2% dextrose) cultures were inoculated from glycerol stocks of the appropriate strain and grown at 30° C. with 250 rpm shaking. Once cultures had reached an OD600 of 4-6, cultures were centrifuged at 500×g for 5 min, supernatants were discarded, and cell pellets were resuspended in equal volume of water. Resuspended cells were centrifuged at 500×g for 5 min, supernatants were discarded, and cells were resuspended in a volume (75 μL×OD×Vculture) of transformation cocktail (45% PEG-400, 0.1 M LiAc, 0.1 M DTT, and 25 ug/100 μL SS Salmon Sperm DNA). For each transformation, >1 μg of plasmid DNA was added to 55 μL cells/transformation cocktail and vortexed for 2 s. Transformations were incubated at 39° C. for 1 h with 250 rpm shaking. Transformations were resuspended in 750 μL YPD with 1 M sorbitol and recovered at 30° C. overnight with 250 rpm shaking. […] Precipitates were pelleted by centrifuging at 4600×g for 10 min and then 200 μL was transferred to fresh plates, sealed, and analyzed via HPLC.
All samples were quenched with equal volume of EtOH containing 0.2 mg/mL internal standard (3,5-Diisopropyl-2-hydroxybenzoic acid CAS #2215-21-6) centrifuged, and clarified solutions were analyzed by HPLC-MS […]

[4] abbreviates: 2% glycerol, strain sCL-SE-0128.

We go through one molecule from patent publication US20240228986A1, “ENGINEERED CELLS, ENZYMES, AND METHODS FOR PRODUCING CANNABINOIDS” (priority 2021, published 2024).

B1: GPS1.1-F11-MPT4: fusion of GPS1.1 and MPT4 via F11 linker, SEQ ID NO: 16 (protein)
chain: MSKAKFESVFPRISEELVQLLRDEGLPQDAVQWFSDSLQYNCVGGKLNRGLSVVDTYQLLTGKKELDDEEYYRLALLGWLIELLQAFWLVSDDIMDESKTRRGQPCWYLKPKVGMIAIWDAFMLESGIYILLKKHFRQEKYYIDLVELFHDISFKTELGQLVDLLTAPEDEVDLNRFSLDKHSFIVRYKTAYYSFYLPVVLAMYVAGITNPKDLQQAMDVLIPLGEYFQVQDDYLDNFGDPEFIGKIGTDIQDNKCSWLVNKALQKATPEQRQILEDNYGVKDKSKELVIKKLYDDMKIEQDYLDYEEEVVGDIKKKIEQVDESRGFKKEVLNAFLAKIYKRQKGGAEAAAKEAAAKAGGSGGGSGGGGSGGSGGGGSGGGGSMSDNSIATKILNFGHTCWKLQRPYVVKGMISIACGLFGRELFNNRHLFSWGLMWKAFFALVPILSFNFFAAIMNQIYDVDIDRINKPDLPLVSGEMSIETAWILSIIVALTGLIVTIKLKSAPLFVFIYIFGIFAGFAYSVPPIRWKQYPFTNFLITISSHVGLAFTSYSATTSALGLPFVWRPAFSFIIAFMTVMGMTIAFAKDISDIEGDAKYGVSTVATKLGARNMTFVVSGVLLLNYLVSISIGIIWPQVFKSNIMILSHAILAFCLIFQTRELALANYASAPSRQFFEFIWLLYYAEYFVYVFI
modifications: GPS1.1-F11-MPT4, geranyl diphosphate synthase, membrane-bound prenyltransferase fusion protein
On to B1, for which the CBGA with olivetolic acid [1] (6% glucose, strain sCL-SE-0128) is 326 ± 16 µM; in the test with olivetolic acid [2] (setting [4]), 393 ± 41 µM; with olivetolic acid [3] (setting [4]) it was 376 ± 41 µM; in the test with hexanoic acid, 55.9 ± 26.4 µM. The FCBGA in the test with olivetolic acid [1] (6% glucose, strain sCL-SE-0128) amounted to 62 ± 2 µM; in the test with olivetolic acid [2] (setting [4]), 60 ± 5 µM; in the test on olivetolic acid [3] (setting [4]), 51 ± 5 µM. For the same molecule, the CBGA/FCBGA was determined as 5.2 with olivetolic acid [1] (product ratio), 6.6 in the test on olivetolic acid [2] (product ratio) and 7.4 in the test with olivetolic acid [3] (product ratio).
